B1: Thermus thermophilus ClpB, wild type (natural protein)
chain: not shown
notes: ClpB of Thermus thermophilus, cloned into pET28b with a six-histidine tag preceded by a TEV site; Homohexamer; also called TT ClpB; WT; source: E. coli BL21 (DE3) pLysS, purified (Ni-NTA, HiPrep DEAE FF)

Tests used:
[1] = target: the molecule itself; test: not stated; test of hexamer assembly shown in Supplementary Figs. 3 and 13 and the supplementary section “Validating the structural integrity of ClpB hexamers”; 2 mM ATP for the labeled sample
[2] = target: B1; test: native gel or EMSA + SEC; native gel electrophoresis and gel filtration chromatography of reassembled mixed labeled ClpB and of the WT; conditions: both partners purified

Row | binding result [2] | Binder | stoichiometry N [1]
1 |  | B1 | 6
2 | binds | ClpB S428C-S771C, double-labeled subunit (natural protein, Alexa 488 C5 maleimide (donor) and Alexa 594 C5 maleimide (acceptor) on the cysteines at 428 and 771, ClpB of Thermus thermophilus with two cysteines for the dyes; S428C-S771C is the main construct; also called double-labeled subunits; labeled ClpB; source: E. coli BL21 (DE3) pLysS, purified (Ni-NTA, HiPrep DEAE FF), labeled) not shown | 

From publication PMC6440998, “Tunable microsecond dynamics of an allosteric switch regulate the activity of a AAA+ disaggregation machine” (Nature Communications, 2019)
